Measured values taken from patent EP3733708A1.

Columns and labels:
[1] = biological target: Recombinant Human PD-1 (R&D Systems Inc) (human) (UniProt Q15116); experiment: ELISA blocking, PD-1 coated, biotinylated PD-L1Fc, streptavidin-HRP; antibody at 1 ng/ml
[2] = biological target: Recombinant Human PD-1 (R&D Systems Inc) (human) (UniProt Q15116); experiment: ELISA blocking, PD-1 coated, biotinylated PD-L1Fc, streptavidin-HRP; antibody at 10 ng/ml
[3] = biological target: Recombinant Human PD-1 (R&D Systems Inc) (human) (UniProt Q15116); experiment: ELISA blocking, PD-1 coated, biotinylated PD-L1Fc, streptavidin-HRP; antibody at 0.1 ng/ml
[4] = biological target: Recombinant Human PD-1 (R&D Systems Inc) (human) (UniProt Q15116); experiment: ELISA blocking, PD-1 coated, biotinylated PD-L1Fc, streptavidin-HRP; antibody at 100 ng/ml
[5] = biological target: Recombinant Human PD-1 (R&D Systems Inc) (human) (UniProt Q15116); experiment: ELISA blocking, PD-1 coated, biotinylated PD-L1Fc, streptavidin-HRP; antibody at 0.01 ng/ml
[6] = biological target: Recombinant Human PD-1 (R&D Systems Inc) (human) (UniProt Q15116); experiment: ELISA blocking, PD-1 coated, biotinylated PD-L1Fc, streptavidin-HRP; antibody at 1000 ng/ml
[7] = biological target: Recombinant Human PD-1 (R&D Systems Inc) (human) (UniProt Q15116); experiment: ELISA blocking, PD-1 coated, biotinylated PD-L1Fc, streptavidin-HRP; antibody at 0.001 ng/ml
[8] = biological target: Recombinant Human PD-1 (R&D Systems Inc) (human) (UniProt Q15116); experiment: ELISA blocking, PD-1 coated, biotinylated PD-L1Fc, streptavidin-HRP; antibody at 10000 ng/ml
[9] = biological target: Recombinant Human PD-1 (R&D Systems Inc) (human) (UniProt Q15116); experiment: second ELISA blocking assay, PD-1 / PD-L1Fc; reference: unlinked mix of 9E3 and 3H4

UniProt Q15116, sequence (Q15116 25-167 limits assumed): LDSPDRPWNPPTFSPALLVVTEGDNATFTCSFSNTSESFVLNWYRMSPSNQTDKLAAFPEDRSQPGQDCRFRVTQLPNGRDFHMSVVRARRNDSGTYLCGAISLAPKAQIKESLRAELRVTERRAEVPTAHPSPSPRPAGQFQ

blocking ELISA signal (PD-L1Fc bound to PD-1) [1]	blocking ELISA signal (PD-L1Fc bound to PD-1) [2]	blocking ELISA signal (PD-L1Fc bound to PD-1) [3]	blocking ELISA signal (PD-L1Fc bound to PD-1) [4]	blocking ELISA signal (PD-L1Fc bound to PD-1) [5]	blocking ELISA signal (PD-L1Fc bound to PD-1) [6]	blocking ELISA signal (PD-L1Fc bound to PD-1) [7]	blocking ELISA signal (PD-L1Fc bound to PD-1) [8]	fold increase in blocking against a simple mix of 9E3 and 3H4 [9]	Binder
1.06	1.09	1.08	0.965	1.11	0.457	1.17	0.104	–	9E3 single domain antibody (VHH) VHH: QLQLVEFGGGLVQAGGSLRLSCAASGSIFRGNAMVWYRQAPGKERELVATITNGGSTNYADSVKGRFTISRDNAKNTVYLQMNSLKPEDTAIYYCNDVIRGESGIYYPLNYWGQGTQVTVSS
1.06	1.1	1.07	0.964	1.08	0.927	1.11	0.833	–	3H4 single domain antibody (VHH) VHH: QVQFVESGGGLVQPGGSLRLSCAVSGSTFVVKHFAWFRQPPGNRRELVAATRGEGTTYYRDSVMGRFTISSDNPENTVYLQMTSLQPEDTAVYFCNVRSPGGEEFWGKGTLVTVSS
1.09	0.947	1.1	0.197	1.12	0.103	1.11	0.102	> 10 fold	Bispecific clone GS388 (9E3-17aa-3H4) (bispecific antibody) QLQLVEFGGGLVQAGGSLRLSCAASGSIFRGNAMVWYRQAPGKERELVATITNGGSTNYADSVKGRFTISRDNAKNTVYLQMNSLKPEDTAIYYCNDVIRGESGIYYPLNYWGQGTQVTVSSGGSEGGGSGGGGESGGGQVQFVESGGGLVQPGGSLRLSCAVSGSTFVVKHFAWFRQPPGNRRELVAATRGEGTTYYRDSVMGRFTISSDNPENTVYLQMTSLQPEDTAVYFCNVRSPGGEEFWGKGTLVTVSS
